PMC9898740, “Spatial control of self-organizing vascular networks with programmable aptamer-tethered growth factor photopatterning”

Biological target: VEGF165 (UniProt P15692-4 27-191)
Experiment: hydrogel sequestration, anti-VEGFA immunofluorescence (confocal); aptamer tethered in GelMA hydrogel, 10 ng VEGF 1 h; GelMA region without aptamer about 16% of the aptamer-region signal; 0.1% BSA in DPBS, 37 °C, 10 ng VEGF in 1 ml for 1 h, wash, 24 h at 37 °C; 25 µM aptamer in 5% GelMA
Settings: protein: commercial; chain copies: 2; single strand, covalently tethered in GelMA hydrogel

Sequence of VEGF165 (P15692 other isoform, or with tags, fused parts or gaps): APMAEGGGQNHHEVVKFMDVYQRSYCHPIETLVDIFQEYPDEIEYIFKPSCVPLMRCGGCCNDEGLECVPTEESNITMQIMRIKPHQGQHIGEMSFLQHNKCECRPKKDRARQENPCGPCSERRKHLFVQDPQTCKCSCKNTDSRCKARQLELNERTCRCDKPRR

CGATCGTATCAGTCCACAAGCCCGTCTTCCAGACAAGAGTGCAGGGC (ssDNA, 5'-acrydite) [VEGF165-specific 5'-acrydite aptamer]: binds.
